Results published in article PMC9896810, “Crk proteins activate the Rap1 guanine nucleotide exchange factor C3G by segregated adaptor-dependent and -independent mechanisms” (Cell Communication and Signaling : CCS, 2023).
Values joined by “and” are separate entries in the source; they are usually repeats but may differ in a detail not shown here. Equal values may be shown once. One block for each binder: values may come before it.

Columns and labels:
[1] = molecular target: T1, C3G (full-length, residues 4-1077) (human, UniProt Q13905-1 4-1077); assay: ITC; C3G in the cell titrated with CrkL in the syringe, 25 °C, 300 mM NaCl, pH 7.5; each titration analysed individually with Origin ITC, independent-site model; conditions: both partners purified
T1 construct: also called C3G WT; RapGEF1; source: E. coli BL21 (DE3), purified (IMAC, TEV digestion, reversed IMAC, SEC); not shown: His, N-terminal, cleaved; Halo, N-terminal, cleaved
T1 sequence (looked up): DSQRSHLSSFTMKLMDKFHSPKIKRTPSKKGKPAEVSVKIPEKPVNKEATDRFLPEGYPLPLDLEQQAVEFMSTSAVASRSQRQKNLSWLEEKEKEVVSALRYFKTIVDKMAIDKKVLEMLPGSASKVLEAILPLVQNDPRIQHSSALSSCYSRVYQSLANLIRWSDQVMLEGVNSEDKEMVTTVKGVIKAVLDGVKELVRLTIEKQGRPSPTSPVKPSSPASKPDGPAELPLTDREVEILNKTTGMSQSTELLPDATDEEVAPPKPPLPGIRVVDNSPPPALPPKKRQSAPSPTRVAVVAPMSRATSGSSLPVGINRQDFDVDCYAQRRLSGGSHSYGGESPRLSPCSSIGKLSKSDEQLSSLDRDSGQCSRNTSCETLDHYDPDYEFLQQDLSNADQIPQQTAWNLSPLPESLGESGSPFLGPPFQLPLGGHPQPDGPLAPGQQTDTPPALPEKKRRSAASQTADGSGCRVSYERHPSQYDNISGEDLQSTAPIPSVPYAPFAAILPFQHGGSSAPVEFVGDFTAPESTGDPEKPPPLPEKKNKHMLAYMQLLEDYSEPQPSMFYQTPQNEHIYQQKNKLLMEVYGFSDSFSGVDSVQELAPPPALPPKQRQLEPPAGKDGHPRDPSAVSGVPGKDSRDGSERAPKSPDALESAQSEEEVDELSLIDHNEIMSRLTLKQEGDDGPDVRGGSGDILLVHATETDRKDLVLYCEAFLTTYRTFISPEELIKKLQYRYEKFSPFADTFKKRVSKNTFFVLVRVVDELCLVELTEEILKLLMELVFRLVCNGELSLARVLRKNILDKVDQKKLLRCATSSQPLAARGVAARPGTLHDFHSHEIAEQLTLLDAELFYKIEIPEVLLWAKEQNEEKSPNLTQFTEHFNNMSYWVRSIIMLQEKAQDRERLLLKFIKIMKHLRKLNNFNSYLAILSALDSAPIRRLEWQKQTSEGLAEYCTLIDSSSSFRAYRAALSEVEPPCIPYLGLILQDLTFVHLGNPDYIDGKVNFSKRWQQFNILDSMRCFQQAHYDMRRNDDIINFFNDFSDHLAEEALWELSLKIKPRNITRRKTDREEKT

[2] = molecular target: T1, C3G (full-length, residues 4-1077); assay: ITC; C3G or pC3G in the cell titrated with the Crk protein, 25 °C, 300 mM NaCl, pH 7.5; global fit of three titrations with SEDPHAT, three symmetric binding sites, microscopic kd; conditions: both partners purified

Kd [1]: 3300 nM
stoichiometry N [1]: 3.2 and 2.8 and 2.9
B1: CrkL (full-length) (natural protein, human, UniProt P46109 1-303, looked up)
chain: MSSARFDSSDRSAWYMGPVSRQEAQTRLQGQRHGMFLVRDSSTCPGDYVLSVSENSRVSHYIINSLPNRRFKIGDQEFDHLPALLEFYKIHYLDTTTLIEPAPRYPSPPMGSVSAPNLPTAEDNLEYVRTLYDFPGNDAEDLPFKKGEILVIIEKPEEQWWSARNKDGRVGMIPVPYVEKLVRSSPHGKHGNRNSNSYGIPEPAHAYAQPQTTTPLPAVSGSPGAAITPLPSTQNGPVFAKAIQKRVPCAYDKTALALEVGDIVKVTRMNINGQWEGEVNGRKGLFPFTHVKIFDPQNPDENE
notes: human CrkL, residues 1-303, in pETEV15b; also called Crk-like protein; source: E. coli BL21 (DE3), purified (IMAC, TEV digestion, SEC); not shown: His, N-terminal, cleaved

Kd [2]: 1600 nM
B2: CrkL-SH3N (domain or fragment, human, UniProt P46109 125-182, looked up)
chain: LEYVRTLYDFPGNDAEDLPFKKGEILVIIEKPEEQWWSARNKDGRVGMIPVPYVEKLV
notes: human CrkL, SH3N domain, residues 125-182, in pETEV15b; source: E. coli BL21 (DE3), purified (IMAC, TEV digestion, SEC); not shown: His, N-terminal, cleaved
